Reference: the nanobody polyreactivity screen of Harvey et al. (2022)

Assay: yeast display, Sf9 membrane polyspecificity reagent, FACS + sequencing; frameworks hold sequencing errors
Summary of the method: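 Galactose induction of a Saccharomyces cerevisiae BJ5465 synthetic nanobody display library ran 36–48 hours. The cells were then stained for 1 hour at 4 °C with 10% biotinylated, detergent-solubilized Sf9 membrane reagent, pulled down on streptavidin microbeads and FACS-sorted into low and high (top ~1%) gates on expression and reagent-binding fluorescence. Labels for polyreactivity follow the gate of origin.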

Sequence	polyreactivity (PSR sort gate)
QVQLVESWGGLVQAGCSLRLSCAASGRTFRSYAMGWYRQATGKERELVAAISRNGGRTYYADSVKGRFTMSRDNAKYTVYSQMNSLKPEDTAVYYCAAVGDFDVYYWGQATQVTVSS	high polyreactivity
QVQLVESWGGLVQAGGRLRLSCAASGRIFWRYAMGWYRQAPGKERELVAAISGRGASTYYADSVKGRFTISRDNAKNTVYLQMNSLKPEDTAVYYCAASLRYRYRYYASDYGYWGQGTQVTVSS	high polyreactivity
QVQLVESWGGLVQAGGSLRLICAASGRIFYPYAMGWYRQAPGKERELVASITSGGGSYYADSVKGRFTISRDNAKNTVYLQMNSLKPEDTAVYYCAAPYITPYGTYVFSSVYWGQGTQVTVSS	low polyreactivity
QVQLVESWGGLVQAGGSLRLSCAASGFIFSSYGMGWYRQAPGKERELVADISGGGSTNYADSVKGRFTISRDNAKNTVYLQMISLNPEDTAVYYCNAQLIRSAAYDYWGQGTQVTVSS	low polyreactivity
QVQLVESWGGLVQAGGSLRLSCAASGFTFDYNGMGWYRQAPWKERELVAGIRWSGGSTYYADSVKGRFTISRDNAKNTVSLQMNSLKPEDTAFYYCAADTLPAEYEYDYWGQGTQVTVSS	low polyreactivity
QVQLVESWGGLVQAGGSLRLSCAASGFTFVSYAMGWYRQAPGKERELVAAISKRGGSTSYADSVKGRFTISRDNAKNTVYLQMNSLKPEDTAVYYCYNRSYAWSPHVDYWGQGTQVTVSS	high polyreactivity
QVQLVESWGGLVQAGGSLRLSCAASGGTFRKNTMGWYRQAPGKERELVAAITRRADRTYYADSVKGRFTISRDNAKHTVYLQMNSLKPEDTAVYYCNAPPPPTKVGGYDYWGQGTQVTVSS	high polyreactivity
QVQLVESWGGLVQAGGSLRLSCAASGLTFVKNAMGWYRQAPGKERELVAAITRTGGSTYYADSVKVRFTISRDNAKNTFYLQMNSLKPEDPAVYYCASRTPSPRRTKTAVDYWGQGTQVTVSS	high polyreactivity
QVQLVESWGGLVQAGGSLRLSCAASGRTFDGNAMGWYRQAPGKEGEFVATISTDGGSTHYADSVKGRFTISRDNAKNTVYLQMNSLKPEDTAVYYCAADTPWYDDNYDYWGQGTQVTVSS	low polyreactivity
QVQLVESWGGLVQAGGSLRLSCAASGRTFYSNAMGWYRQARGNERELVAAISRSGGTTYYADSVKGRFTISRDNAKNTVYLLMNSLKPEDTAVYYCNTLRYGTTGKYDYWGQGTQVTVSS	high polyreactivity
QVQLVESWGGLVQAGGSLRLSCAASGRTFYYYTMGWYRQAPGKEREFVAAISWSGGGTYYADSVKGRFTISRDNAKNTDYLQMNILKPEDTAVYYCATGPRIRYDYWGQGTQVNVSS	high polyreactivity
QVQLVESWGGLVQAGGSLRLSCAASGSIFDYNAMGWYRQAPGKERELVAAISSGGSTNYADSVKGRFTISRDNAKNTVYLQMNSLKPEDTAVYYCNTGLYWLGYWPDDYWGQGTQVTVSS	low polyreactivity
QVQLVESWGGLVQAGGSLRLSCAASGSILYYYVMGWYRQAPGKERELVAAINSGGNTNYADSVKGRFTISRDNAKNTVYLQMNSLKTVDTAVYYCATASGDGVRTDFGNEYDYWGQGTQVNVSS	low polyreactivity
QVQLVESWGGLVQAGGSLRLSCAASGSNFYTYAMGWYRQAPGKERDFVAAITWSGGRTYYADSVKGRFTISRDNAKNSVYLQMNSLKPEDTAVYYCAATSWWATTGFDYWGQGTQVTVSS	low polyreactivity
QVQLVESWGGLVQAGGSLRLSCAASGSTFVAYAMGGYRQAPGKEREFVAGISVRGGSTYYADSVKGRFTISRDNAKNTVYLQMNSLKPEDTAVYYCAARRVDTRVHVRYRYYYWGQGTQVTVSS	high polyreactivity
QVQLVESWGGLVQAGGSLRLSCAASGSTISANALGWDRQAPGTEREWVASISRRGGSPYYADSVKGRFTISRDKATNTVYLQMNSLKPEDTAVYYSGAVFRYYARTFDYWGQGTQVSVSS	high polyreactivity

Sequence	polyreactivity (PSR sort gate)
QVQLVESWGGLVQAGGSLRLSCDASGSTFIPKDMGWYRQAPGKERELVAAITVSGDDTYYADSVKGRFTISRDNAKNTVYIQMNILKPEVTAVYYCAAEWGLYVGQYEYCGQGTQVTVSS	low polyreactivity
QVQLVESWGGLVQAGGSLRLSCDASGSTLYHNVMGWYRQAPGKERDLVASIDTGDSTNYADSVKGRFSISRDNAKNTVYLQMNSLKPEDTAVSYCNADSYTALNNRGYDYWGLGTQVTVSS	low polyreactivity
QVQLVESWGGLVQAGGSLRLSSPASGFTFFYYAMGWYRPAPGKERELVAAITSGGSTKNADSVKGRFTISRDNAKNSVYLQMNSLKPEDTAVYYCAARVRISGSPRILYNYWGQGTQVTVSS	high polyreactivity
QVQLVESWGGLVQAGGTLSLSCADSGLIFYFYDRGWYRQAPGKESEFVATISSTGGSTYYADSVKGRFTISRDNAKNTVYLQMNSVKPEDTAVYVCADRGWFPGFRYDYWGQGTQVTVSS	low polyreactivity
QVQLVESWGGLVQAGRSHRLSCAASGIIFDGNALGWYRQAPRKEREMVAAISSSGARTYYADSVKGRFTISRDNAKNSVYLLMNSLKPEDTAVYYCNAAYFNWYTHVWNDYWGQGTQVTVSS	high polyreactivity
QVQLVESWGGLVQSGGSLRLICAASGSTNQYNAMGWYRQAPGKERELVAAISLSGATTYYADSVKGRCTISRDPAKNTVYLQMNIQKPEDTSVYYCAADFGWFYDCVAVWFIRILGDYWGQGTQVTVSS	low polyreactivity
QVQLVESWGVLVQAGGSLRLSCAASGSIFTYYTMGWYRPEPGKERDFVARISSGGSTNYADSVKGRFTISRDNAMNTVYLQMNSLKPEDTAVYYCAAVSSYSPYRLTYYYWGQGTQVTVSS	high polyreactivity
QVQLVESWGVLVQAGGSLRLSCAAYGSIFRLYAMGSYRTAPGTARELVAAITSGDSTNYADSVKGRFTISRDNAKNTVYLQMNSLKPEDTAVYYCNSGRISVRVTSEQYAYHEYYYWGQGTQVTVSS	high polyreactivity
QVQLVESWRGLDQAGGSLRLICSASGGIFKGYSMGWFRQAPGKERELVAVISSRVGSTYYADSLKGRFTISRDNEKNTVYLQMNSQKPEHTAVYYCAKRRYAAVNYNYWGQGTQVTVSS	high polyreactivity
QVQLVETAGGLVKAGCSLRLSCAASGRIFYIYAMAWYRQSPGKESELLAAISTGGGGTYYADSVKGRFTISRDNAKNTVYLQMNSLKPEDTAVYYCAATSPLSLDEDYWGQGTQVTVSS	high polyreactivity
QVQLVETGAGIVQAGGILRLSCAASGSIFQGNAIGWYRQAPGKERELVAAISGGTSTYYADSEKGRFTISRDNAKNTVYLEMNSLKPEDTAVYYCAARFYGHPYWYDYWGLGTQVTVSS	low polyreactivity
QVQLVETGAGLVQAGGSLRLSSAASGRTLYPYAMGWSRQSPGNERELVAAISSRGGSTYYADSVKGRFTISRDIAKNTVYLQMNSLKPEDTAVYYCAKTYRKILSITGDVPWTDYYWGQGTQVTVSS	low polyreactivity
QVQLVETGGCLVQAGGSLRLSCAASGFIFYIYAMGWYRQAPGKERELVAAITSGGSTYYADSVKGRFTITRDNAKNTVYLQMNSLKPDDTAVYYCASESYYGYDYWGQGTQVTVSS	low polyreactivity
QVQLVETGGGIVQAGGRLRLSCAASGFTFYANTMGWYRQAPGKERELVATIRSTGSTKYADSVKGRFTISRDNAMNTVYLQMNSLNPEDTAVYYCAKRDRYYGVAVEGIRYDYWGQGTQVTVSS	high polyreactivity
QVQLVETGGGIVQAGGSLRLSCAASGFTFFRNAMGWYRQAPGKERELVAAISGSGGSTYYADSVKGRFTISRDNAKNKVYLQMNSLKPEDTAVYYCNAQKQIREPGNERLNYWGQGTQVTVSS	low polyreactivity
